Source: patent publication US20240167008, “NOVEL CRISPR ENZYMES, METHODS, SYSTEMS AND USES THEREOF” (Beam Therapeutics Inc., published 2024)

T1: ScoCas9 (human codon-optimized) (Streptococcus constellatus)
T1 chain: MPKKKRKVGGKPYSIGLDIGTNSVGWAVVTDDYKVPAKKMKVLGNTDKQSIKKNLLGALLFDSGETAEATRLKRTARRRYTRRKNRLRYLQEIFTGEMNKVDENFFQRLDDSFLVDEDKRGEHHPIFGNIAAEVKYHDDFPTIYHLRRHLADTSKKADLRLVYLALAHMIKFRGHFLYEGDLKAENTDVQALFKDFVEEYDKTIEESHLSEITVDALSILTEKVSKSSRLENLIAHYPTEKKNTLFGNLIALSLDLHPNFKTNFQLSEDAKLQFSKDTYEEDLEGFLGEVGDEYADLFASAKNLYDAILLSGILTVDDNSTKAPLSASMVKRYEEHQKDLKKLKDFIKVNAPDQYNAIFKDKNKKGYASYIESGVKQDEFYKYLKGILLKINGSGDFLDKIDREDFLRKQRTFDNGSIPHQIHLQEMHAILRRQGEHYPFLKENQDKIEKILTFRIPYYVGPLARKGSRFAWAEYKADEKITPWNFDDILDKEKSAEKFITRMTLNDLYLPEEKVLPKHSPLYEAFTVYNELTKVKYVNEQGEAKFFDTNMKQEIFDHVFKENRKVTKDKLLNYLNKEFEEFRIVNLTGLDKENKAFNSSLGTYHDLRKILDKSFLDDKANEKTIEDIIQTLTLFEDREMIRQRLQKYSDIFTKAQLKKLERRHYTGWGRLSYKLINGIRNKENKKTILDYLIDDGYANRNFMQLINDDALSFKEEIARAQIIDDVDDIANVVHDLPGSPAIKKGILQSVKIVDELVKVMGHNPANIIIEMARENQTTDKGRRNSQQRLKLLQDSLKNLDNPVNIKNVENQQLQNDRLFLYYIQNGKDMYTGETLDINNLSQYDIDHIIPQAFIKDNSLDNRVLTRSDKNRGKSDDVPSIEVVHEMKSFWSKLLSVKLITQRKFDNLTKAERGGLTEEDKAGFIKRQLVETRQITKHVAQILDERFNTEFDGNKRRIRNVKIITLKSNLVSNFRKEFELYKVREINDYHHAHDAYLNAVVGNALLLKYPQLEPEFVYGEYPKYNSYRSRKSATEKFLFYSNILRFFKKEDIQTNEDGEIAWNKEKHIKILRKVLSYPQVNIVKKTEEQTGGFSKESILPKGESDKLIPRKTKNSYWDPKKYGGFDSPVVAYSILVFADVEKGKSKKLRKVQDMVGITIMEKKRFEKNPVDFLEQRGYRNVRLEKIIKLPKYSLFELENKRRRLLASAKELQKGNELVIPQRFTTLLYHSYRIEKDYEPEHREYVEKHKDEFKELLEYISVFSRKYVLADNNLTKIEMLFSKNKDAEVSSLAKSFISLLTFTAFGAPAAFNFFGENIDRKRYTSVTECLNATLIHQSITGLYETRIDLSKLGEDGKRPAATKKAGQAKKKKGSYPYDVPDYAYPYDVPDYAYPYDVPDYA

B1: Sco guide 2 sgRNA ; guide 2 site (ssRNA ; dsDNA)
RNA: GAAACAAUGAUAACAAGACCGUUUUAGAGCUGUGCUGUUUAAACAACACAGCAAGUUAAAAUAAGGCUUUGUCCGUACUCAAGCUUGCAAAAGCGUGCACCGAUUCGGUGCU
DNA 1: GAAACAATGATAACAAGACCTGG
DNA 2: CCAGGTCTTGTTATCATTGTTTC
B2: Sco guide 9 sgRNA ; guide 9 site (ssRNA ; dsDNA)
RNA: GUUGAAGAUGAAGCCCAGAGGUUUUAGAGCUGUGCUGUUUAAACAACACAGCAAGUUAAAAUAAGGCUUUGUCCGUACUCAAGCUUGCAAAAGCGUGCACCGAUUCGGUGCU
DNA 1: GTTGAAGATGAAGCCCAGAGCGG
DNA 2: CCGCTCTGGGCTTCATCTTCAAC
B3: Sco guide 11 sgRNA ; guide 11 site (ssRNA ; dsDNA)
RNA: UGCUGCACACAGCAGGCCUUGUUUUAGAGCUGUGCUGUUUAAACAACACAGCAAGUUAAAAUAAGGCUUUGUCCGUACUCAAGCUUGCAAAAGCGUGCACCGAUUCGGUGCU
DNA 1: TGCTGCACACAGCAGGCCTTTGG
DNA 2: CCAAAGGCCTGCTGTGTGCAGCA

Molecular target: T1, ScoCas9 (human codon-optimized)
Experiment: cell_activity; PAM NGG; HEK293T
Settings: tags: N-terminal and C-terminal NLS, 3xHA
Experimental: HEK293T cells were plated in a 96-well plate. Cells were transfected with expression vectors containing Cas9 and guide RNAs (Table 10), 24 hours after plating. Cells were harvested 72 hours post-transfection and total DNA was extracted.

| Binder | activity [% indel] |
| --- | --- |
| B1 | > 30 |
| B2 | > 30 |
| B3 | ~2 |
